Experimental data taken from publication PMC7330101.

Target: SUN2 (human (endogenous in HUVECs)) (UniProt Q9UH99)
Experiment: proximity ligation; Duolink in situ PLA on fixed, saponin-permeabilised HUVECs with primary antibodies against SUN2 and Nesprin1; cells exposed to PS (12 ± 4 dynes/cm^2) or OS (0.5 ± 4 dynes/cm^2) for 6 h

Chain of UniProt Q9UH99 (Q9UH99 whole entry): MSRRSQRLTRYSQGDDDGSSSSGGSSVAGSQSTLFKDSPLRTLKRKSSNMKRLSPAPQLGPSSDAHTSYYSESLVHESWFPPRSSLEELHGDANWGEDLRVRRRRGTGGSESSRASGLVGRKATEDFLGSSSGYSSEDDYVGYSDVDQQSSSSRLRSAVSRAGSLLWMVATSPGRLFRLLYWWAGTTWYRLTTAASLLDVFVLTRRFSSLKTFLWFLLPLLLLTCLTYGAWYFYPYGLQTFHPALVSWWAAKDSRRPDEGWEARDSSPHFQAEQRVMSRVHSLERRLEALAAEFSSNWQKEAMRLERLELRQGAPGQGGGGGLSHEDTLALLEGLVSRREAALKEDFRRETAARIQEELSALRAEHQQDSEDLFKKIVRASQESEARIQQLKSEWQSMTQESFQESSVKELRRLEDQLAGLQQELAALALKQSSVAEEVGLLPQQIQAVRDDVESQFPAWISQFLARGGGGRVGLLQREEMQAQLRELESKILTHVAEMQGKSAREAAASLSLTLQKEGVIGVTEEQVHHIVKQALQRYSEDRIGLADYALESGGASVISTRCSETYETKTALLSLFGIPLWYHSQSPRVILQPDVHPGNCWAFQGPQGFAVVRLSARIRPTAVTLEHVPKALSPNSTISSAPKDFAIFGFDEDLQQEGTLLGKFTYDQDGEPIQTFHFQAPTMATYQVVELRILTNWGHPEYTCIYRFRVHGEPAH

Which PLA punctuated signals per cell (cells exposed to OS) does the source give for Nesprin1, Q8NF91 1-8797 here?
The PLA punctuated signals per cell (cells exposed to OS) was 2 per cell.

What about the PLA punctuated signals per cell (cells exposed to PS) of the same substance?
Its PLA punctuated signals per cell (cells exposed to PS) is 7 per cell.
